Assay [1] has as its target Polyclonal human IgG Gammanorm (human). The assay can be described thus: affinity chromatography, commercial resin packed in column, polyclonal human IgG (Gammanorm) applied, DBC at 6 min residence time.
The target is the same in assay [2]. As to the kind of experiment: affinity chromatography column, IgG binding capacity after 24 h in 0.5 M NaOH at room temperature relative to before incubation.

For the substance MabSelect SuRe, in assay [1], the Dynamic binding capacity at 6 min residence time turned out to be 41.8 mg/mL. Further, the Remaining binding capacity after 24h 0.5M NaOH incubation in assay [2] was found to be 75.2%.

The values are drawn from US20220112236A1.
